Experimental data taken from patent US20240417476A1.
Residue numbers refer to the chain shown, from its start.

B1: aNRP2-37v2 (antibody, V domains shown)
VH: DVKLVESGEGLVKPGGSLKLSCAASGFTFSDYALSWVRQTPEKRLEWVAYISSGGDYIYYADTVRGRFTISRDNARNTLYLQMSSLQSEDTAIYYCTRGGQDDYWGQGTTLTVSS
VL: DVVMTQTPLSLPVILGDQASISCRSSQSLVHSNGNTYLQWYLQKPGQSPKLLIYKVSNRFSGVPDRFSGSGSGTDFTLKISRVEAEDLGVYFCSQSTHVPFTFGSGTNLEIK
B2: aNRP2-408v2 (antibody, V domains shown)
VH: EVKLVESGGGLVKPGGSLKLSCAASGFTFSSYAMSWVRQTPEKRLEWVASISRGSITYYPDSVKGRFTISRDNAGNILYLQMSSLRSEDTAMYYCAREYYYAMDYWGQGTSVTVSS
VL: DIQMTQSPSSLSASLGERVSLTCRASQDIGSRLNWLQQEPDGTIKRLIYATSSLDSGVPKRFSGSRSGSDYSLTISSLESEDFVDYYCLQYASSPYTFGGGTKLEIK
B3: aNRP2-409v3 (antibody, V domains shown)
VH: EVQFVETGGGLVQPKGSLKLSCAASGFTFNTNAMNWVRQAPGKGLEWVARIRTKSNNYATYYADSVKDRFTISRDDSQNILYLQMNNLKTEDTAMYYCVTLDSSGYVWFAYWGQGTLVTVSA
VL: B2 VL
B4: aNRP2-400v2 (antibody, V domains shown)
VH: EVQLQESGAELARPGASVKLSCKASGYTFRSYGISWVKQRTGQGLEWIGEIYPRSGNTYYDENFKGRATLTADKSSSTAFMELRSLTSEDSAVYFCARSSITAVVAIPYYYAMDYWGQGTSVTVSS
VL: DIQMTQTTSSLSASLGDRVTISCSASQGISNYLNWYQQKPDGSVKLLIYYTSSLHSGVPSRFSGSGSGTDYSLTISNLEPEDIATYYCQQYSKLPHTFGGGTKLELK
B5: aNRP2-401v2 (antibody, V domains shown)
VH: EVQLQESGGGLVKPGGSLKLSCAASGFTFSDYGMHWVRQAPEKGLEWVATISRDINTVYYADTVKGRFTISRDNAKNTLFLQVTSLRSEDTAMYYCTRGGYTDYWGQGTTLTVSS
VL: DIVMTQTPLSLPVSLGDQASISCRSSQSLVHSNGNTYLYWYLQRPGQSPKLLIYKVSNRFSGVPDRFSGSGSGTDFTLKISRVEAEDLGVYFCSQSTHVLTFGGGTKLEIK
B6: aNRP2-403v2 (antibody, V domains shown)
VH: QVQLQQPGAELVKPGASVKLSCKASGYTFTSYWMHWVKQRPGRGLEWIGRIDPNSGDTKYNEKFKSKATLTVDKPSSTAYMQVSSLTSEDSAVYYCARSYDYALEYWGQGTSVTVSS
VL: B1 VL with I14S, Q39H, Y41F, K50N, S96N, H98R, F101R, S105G, N108K
B7: aNRP2-405v2 (antibody, V domains shown)
VH: EVMLVESGGGLVKPGGSLKLSCAASGFTFRRYAMSWVRQTPEKGLEWVATITSGGSYTYYLDSVKGRITISRDNAKNTLYLQMSSLRSEDTAMYYCARHGIYGGFDYWGQGTTLTVSS
VL: DVLMTQTPLSLPVSLGDQASISCRSSQSIVHSDGNTYLEWYLQKPGQSPNLLIYKVSNRFSGVPDRFSGSGSGTDFTLKISRVEAEDLGIYYCFQGSHVPFTFGSGTKLEIK
B8: aNRP2-407v2 (antibody, V domains shown)
VH: EVQLQQSGPELVKPGASVTISCKASGYSFTGYYMHWVKQSHVKSLEWIGRINPYNGATSYSQNFKDKASLTIDKSSSTAYMELHSLTSEDSAVYYCAREETTAPFTYWGQGTLVTVSA
VL: DIVMSQSPSSLAVSVGEKVTMSCKSSQSLLYSSNQKNYLAWYQQKPGQSPKLLIYWASTRESGVPDRFTGSGSGTDFTLTISSVQAEDLAVYFCQHYYSYPPTFGGGTKLEIK
B9: aNRP2-401v5 (antibody, V domains shown)
VH: EVQLVESGGGLVQPGGSLRLSCAASGFTFSDYGMHWVRQAPGKGLEWVSTISRDINTVYYADTVKGRFTISRDNAKNSLYLQMNSLRAEDTAVYYCARGGYTDYWGQGTTVTVSS
VL: B5 VL with P12S, S14T, L15P, D17Q, Q18P, R44K, K50Q, L88V, F92Y, L108V
B10: aNRP2-401v6 (antibody, V domains shown)
VH: B9 VH
VL: DIVMTQTPLSLSVTPGQPASISCRSSQSLVHSNGNTYLYWYLQKPGQSPQLLIYKVSNRFSGVPDRFSGSGSGTDFTLKISRVEAEDVGVYYCAQSTHPLTFGGGTKVEIK
B11: aNRP2-401v7 (antibody, V domains shown)
VH: B9 VH with D54S
VL: B10 VL
B12: aNRP2-401v8 (antibody, V domains shown)
VH: B9 VH with N56Q
VL: B10 VL

Target: recombinant NRP2 isoform a (human) (UniProt O60462)
Test: BLI, antibody captured by anti-mouse kappa, NRP2a titrated 0.62-450 nM, 1:1 fit

Binder | Kd
B1 | 0.767 nM
B2 | 2.1 nM
B3 | 2.23 nM
B4 | 0.453 nM
B5 | 0.136 nM
B6 | 1.4 nM
B7 | 0.48 nM
B8 | 0.352 nM

Target: recombinant NRP2 isoform a (human) (UniProt O60462)
Test: BLI (Octet RED96e)

Binder | Kd | koff | kon
B9 | 0.391 nM | 0.000293 s⁻¹ | 748000 M⁻¹ s⁻¹
B10 | 0.162 nM | 0.000162 s⁻¹ | 999000 M⁻¹ s⁻¹
B11 | 0.141 nM | 0.000173 s⁻¹ | 1.23e+06 M⁻¹ s⁻¹
B12 | 0.0989 nM | 0.00012 s⁻¹ | 1.21e+06 M⁻¹ s⁻¹
